Target: T1, IpaH7.8 wild-type (recombinant) (Shigella flexneri, UniProt P18014 2-565)
T1 sequence: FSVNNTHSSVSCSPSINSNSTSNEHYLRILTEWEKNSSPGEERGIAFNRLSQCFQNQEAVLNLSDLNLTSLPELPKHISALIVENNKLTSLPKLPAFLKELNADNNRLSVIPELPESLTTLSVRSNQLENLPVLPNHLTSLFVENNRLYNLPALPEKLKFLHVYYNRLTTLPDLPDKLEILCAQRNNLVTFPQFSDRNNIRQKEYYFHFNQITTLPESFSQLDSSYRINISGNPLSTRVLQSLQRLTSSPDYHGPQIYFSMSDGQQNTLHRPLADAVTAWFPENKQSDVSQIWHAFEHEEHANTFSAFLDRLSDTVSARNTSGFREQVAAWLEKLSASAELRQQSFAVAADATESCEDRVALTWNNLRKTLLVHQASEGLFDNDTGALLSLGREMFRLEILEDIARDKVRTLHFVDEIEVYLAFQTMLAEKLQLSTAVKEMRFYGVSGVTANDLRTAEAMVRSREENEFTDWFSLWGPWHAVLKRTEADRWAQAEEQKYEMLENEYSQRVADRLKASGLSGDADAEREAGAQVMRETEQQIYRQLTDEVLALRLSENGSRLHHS
Assay: MST

B1: hsGSDMD-1D4 (purified, dye-labelled) (natural protein)
chain: MGSAFERVVRRVVQELDHGGEFIPVTSLQSSTGFQPYCLVVRKPSSSWFWKPRYKCVNLSIKDILEPDAAEPDVQRGRSFHFYDAMDGQIQGSVELAAPGQAKIAGGAAVSDSSSTSMNVYSLSVDPNTWQTLLHERHLRQPEHKVLQQLRSRGDNVYVVTEVLQTQKEVEVTRTHKREGSGRFSLPGATCLQGEGQGHLSQKKTVTIPSGSTLAFRVAQLVIDSDLDVLLFPDKKQRTFQPPATGHKRSTSEGAWPQLPSGLSMMRCLHNFLTDGVPAEGAFTEDFQGLRAEVETISKELELLDRELCQLLLEGLEGVLRDQLALRALEEALEQGQSLGPVEPLDGPAGAVLECLVLSSGMLVPELAIPVVYLLGALTMLSETQHKLLAEALESQTLLGPLELVGSLLEQSAPWQERSTMSLPPGLLGNSWGEGAPAWVLLDECGLELGEDTPHVCWEPQAQGRMCALYASLALLSGLSQEPH
modifications: labelled with the 2nd generation red-maleimide dye (Nanotemper protein labeling kit)
- Kd: 194 nM

Reference: paper PMC9122893 (Cell host & microbe, 2021)
